# Test results taken from the DeepSol protein solubility set.
# Test: soluble on expression in E. coli; label from the status in PepcDB or PDB records
row,Sequence,soluble on expression in E. coli
1,MSLGMHGAAHIVWDWNGTLFHDNAAIIGATNAAFAELGLEPITLERYRALYCVPVPKFYERLIGRLPTDAEWEIMDEIFHRYYAEHRVGCGLTEGAAELLVEWQSAGHSQSILSMYVHDELVPLVRGFGIEPHFIRVDGRTGPSGGSKAEHMVRHIGALAGVAGVDPARTVVIGDAADDAVAALHVGAQAVLYTGGSHSRASLEGVGVPVVDTLAEAVEEAGRLAAEGHHHHHH,soluble
2,MKLYYTPGSCSLSPHIVLRETGLDFSIERIDLRTKKTESGKDFLAINPKGQVPVLQLDNGDILTEGVAIVQYLADLKPDRNLIAPPKALERYHQIEWLNFLASEVHKGYSPLFSSDTPESYLPVVKNKLKSKFVYINDVLSKQKCVCGDHFTVADAYLFTLSQWAPHVALDLTDLSHLQDYLARIAQRPNVHSALVTEGLIKE,soluble
3,MSQENIIYFSDYICITKGADGFYIESYKKGMSVDEFNKIIGRHPEIKITSFMAIKNAILFAPKPPVKFGEVKDRISVELSSDELKAYIRLCVEEWEFSGDARVKLMEEISKSLEKAGVVFGIKEDVLLDGLCNNKQILIAEGIPPEHGEDAVIRMYEIKKAKPAIKEDGRVDHYELNLINKVKTGDWLGERIDPTPGTAGKSVKGNPIPARPGRNYPLHYDKNSVREERKGGVTYLYALKSGAVHYEGDRISVSNHLEIDGDVDFKTGNINFDGFVTIKGTVADGFSVVAVKDVEILGTIGIGSVKEVVSKEGSIYIKGGIAGKNKAVIKAKKDVYTKYISDATVACEGSLHVGLYCINSNITAREIIIDSPKGQISGGNIQCETKVLSPVLGSPSEKRTVISVKGFNRNTLKERLEEVMKNIETLKNELVKVKAEVNAYFENEQNGKVGSLKAEDIRQRFNRIKNELTELEEEKKAISDTLRTRGEGEISILKKAYPGVVIGIKNIIKEIDRPIVNTTFYIQDGYIKEV,soluble
4,MFRRKLTALDYHNPAGFNCKDETEFRNFIVWLEDQKIRHYKIEDRGNLRNIHSSDWPKFFEKYLRDVNCPFKIQDRQEAIDWLLGLAVRLEYGDNAEKYKDLVPDNSKTADNATKNAEPLINLDVNNPDFKAGVMALANLLQIQRHDDYLVMLKAIRILVQERLTQDAVAKANQTKEGLPVALDKHILGFDTGDAVLNEAAQILRLLHIEELRELQTKINEAIVAVQAIIADPKTDHRLGKVGRLEHHHHHH,soluble
5,MIEMTPDSSVYKALLESTKAIPWKINWQTMAFEYIGPQIEALLGWPQGSWKSVEDWATRMHPEDQEWVVNFCVKQSECGVDHEADYRALHRDGHYVWIRDVVHVVRDDSGEVEALIGFMFDISERKKTLEHHHHHH,soluble
6,MSLRPLAIIGPTGAGKSQLALDVAARLGARVSVEIVNADAMQLYRGMDIGTAKLPVSERRGIPHHQLDVLDVTETATVARYQRAAAADIEAIAARGAVPVVVGGSMLYVQSLLDDWSFPATDPSVRARWERRLAEVGVDRLHAELARRDPAAAAAILPTDARRTVRALEVVELTGQPFAASAPRIGAPRWDTVIVGLDCQTTILDERLARRTDLMFDQGLVEEVRTLLRNGLREGVTASRALGYAQVIAALDAGAGADMMRAAREQTYLGTRRYVRRQRSWFRRDHRVHWLDAGVASSPDRARLVDDAVRLWRHVTEGHHHHHH,soluble
7,GPGSMPNEKAQTLTVAEAFAETSKALQQFNIERIRVDGLSRGNACDEEKFRMLTEQEFMREFVFHSRPCIIVGALCDWPALQRWRDDRYLFDLDEKLPMVYEKERTSKGNGEINENDSFHEDEEIVTESDAEDSKNGTSNNEAESQGTLGPRRVTVALTPNGRADAVTYVTYNAVKNESQVHDKLEGKSDFVVTEKLFMSAAELRVTLPELYRLLRANPLVPPLKSQFVDLRRPQRSIAYAQMQNNCLAEEYQHLHADIDTALDRFGTRVFGGKREAANIWLGTPASVSSMHQDWVENLYAVVRGVKEFILVPPWEGVFVPKPELPAAAFTLKAAANCKEGEEEYIFSDSPTRDGTSVPWMDVELTPAAVDDPLHIKEELRDKLHPLIAYVQPGEVLYLPALWLHRVAQHADSEDSRVIEEASTEEIAKVSRHDQKHSAPLPLIAAVNYWYDMSFTNPAVVMLREFGLLL,not soluble
8,MSLEAIHRSTRIEFSKSSLAYNVQYTKQVSGAKTLWLAVKSNAYGHGLLQVSKIARECGVDGLAVSVLDEGIAIRQAGIDDFILILGPIDVKYAPIASKYHFLTTVSSLDWLKSADKILGKEKLSVNLAVDTGMNRIGVRSKKDLKDEIEFLQEHSDHFSYDGIFTHFASSDNPDDHYFQRQKNRWYELIDGLIMPRYVHVMNSGAAMYHSKELPGCNSIARVGTVVYGVEPSEGVLGPIDKLKPVFELKSALTFVKKIPAGEGISYGSKFVTSRDTWIGTLPIGYGDGWLAEYQDFQLLIDGQKCRQVGQIAMDQMMVALPHEYPIGTEVTLIGKSGKYENTLYDLHKHSGVPPWKITVAFSDRLKRMVVDEGHHHHHH,soluble
9,TIDAQLQKRAEQAFGDQAGAAVVMEVNTGEILAFVSNPEFDPALFAGRMPPEIWKQYLEDKRHPLENKALKGQYPPGSTYKIITALAGLEEGIIDDHTTVTCKGSYALGNTTFRCWDKKGHGAVDLRRALRESCDVYFYVLGEKLGIDRLSAYAQKFALGAPMGVGLDNEKGGLIPTSAWKLQRHKTRWFQGDTLSAAIGQGYVLMTPIQLASMTAAIATDGIVYRPRLVKRIIDRDGKVLREFQPEIITRADISPRSFKSVKEGLWAVVNESGGTGGMSRIPDVRVAGKTGTSQVVKLRDTRGFIPYQYRDHALFVAYAPYEHPEVAVAVVIEHGEHGGSAAAPIAGSILRAYFEGKGVIRR,not soluble
10,RFEHSLGVYHLADRALAHLDISGTRADTVRAAALLHDIGHGPYGHQTEGIIQRRLDRHHDDVAHLVSNGEPGAVLAAHGLDPDRVAALVAGHGKLGQLVAGELDVDRMDYLVRD,soluble
11,MSLANQPIDLLMQPKWRVIDQSSLGPLFDAKQSFAMDDTLCMSVGKGVSPATARSWVHHDTIVLGIQDTRLPFLQDGISLLESEGYRVIVRNSGGLAVVLDDGVLNISLIFEDEKKGIDIDKGYEAMVELMRRMLRPYNAKIEAYEIEGSYCPGSYDLSINGKKFAGISQRRVRGGVAVQIYLCADKSGSERADLIRRFYQAALKDKQNDKKGVYPEIRPETMASLSELLQKDISVQDLMFALLTELKALSTHLYSAGLSIDEEMEFEKNLVRMAERNAKVFGEGHHHHHH,soluble
12,SVNAATVDLRIMETTDLHSNMMDFDYYKDAATEKFGLVRTASLIEQARAEVKNSVLVDNGDVIQGSPLGDYMAAKGLKEGDVHPVYKAMNTLNYAVGNLGNHEFNYGLDFLHKALAGAKFPYVNANIIDAKTGKPMFTPYLIQDTRVVDSDGQIHTLRIGYIGFVPPQIMTWDKANLNGKVTVNDITETARKYIPEMRAKGADVVVVVAHSGLSADPYQAMAENSVYYLSQVPGVDAIMFGHAHAVFPGKDFANIKGADIAKGTLNGVPAVMPGMWGDHLGVVDLVLNNDSGKWQVTQSKAEARPIYDAVAKKSLAAEDGKLVSVLKADHDATREFVSK,soluble
13,MSLGYDHPEILLNFKKDADIWDMMLNTNYMKTCREVVFEYLGVKNGDTVLEVGCGSRSPVYFASKVAPNGAYTGVDISKKLIRVAEGRLKRSGVECVNLKSMDFSETITKYKHDYVLCIHTLSYAHSMKLFLKKMMESLRKGGKLLIMEEFFTENINTNAELFEFYNHLNKYFKNYVSRTEILKEIEMLGYDFKYELLGNNCIVVERIEGHHHHHH,not soluble
14,MAGDPMTALKYLQAYPVALQQQVRQLIDEQRLGDYLSQRYPGRHAVQSDKALYSYALELKQEYLRNAPAIDKVLFDNRLDLTHRALGLHTTVSRVQGGKLKAKKEIRIASLFKEAAPEFLRMIVVHELAHFKESDHNKAFYKLCEHMLPGYHQLEFDLRVYLTWRDLQGKAGAPDLEHHHHHH,soluble
15,MLQNQYVREMRKYGVRGLRYDAAKHSKHEQIERSITPPLKNYNERLHNTNLFNPKYHEKAVMNYMEYLVTCQLDEEQMSSLLYERDDLSAIDFSLLMKTIKAFSFGGDLQTLASKPSSTISSIPSKRRILININHDFPNNGNLFNDFLFNHQQDEQLAMAYMAALPFSRPLVYWDGQVLKSTTEIKNYDGSTRVGGEAWLNKGCSTYQQLYNEFHALYIDKAGIWSAFEGVFATKNVLAFSRGDSVNINHSPHDGLVIINKGNEEVEGAWPNKLQPGKYKNMGSNSVNIIINNTRKIIPPGKAFMLRGGTLNINIPGRSALLLGKTGEPLNYLYL,not soluble
